From patent publication US20160355591A1

Assays:
[1] = target: CD74 on human cells (human) (UniProt P04233); assay: indirect flow cytometry, Namalwa cells, FITC-GAH Fc 2nd Ab; none 2.6
[2] = target: CD74 on human cells (human) (UniProt P04233); assay: indirect flow cytometry, Raji cells, FITC-GAH Fc 2nd Ab; none 6.9
[3] = target: CD74 on dog lymphocytes and dog lymphoma cells (dog); assay: flow cytometry, canine lymphoma aspirate 150836; none 3.2
[4] = target: CD74 on human cells (human) (UniProt P04233); assay: indirect flow cytometry, WSU-FSCCL cells, FITC-GAH Fc 2nd Ab; none 2.7
[5] = target: CD74 on human cells (human) (UniProt P04233); assay: indirect FACS, WSU-FSCCL cells, FITC-GAH Fc 2nd Ab; none 2.6
[6] = target: CD74 on human cells (human) (UniProt P04233); assay: indirect flow cytometry, Daudi cells, FITC-GAH Fc 2nd Ab; none 3.2
[7] = target: CD74 on dog lymphocytes and dog lymphoma cells (dog); assay: flow cytometry, dog lymphoma aspirate; none 4.48
[8] = target: CD74 on human cells (human) (UniProt P04233); assay: indirect FACS, Daudi cells, FITC-GAH Fc 2nd Ab; none 3.1
[9] = target: CD74 on human cells (human) (UniProt P04233); assay: indirect flow cytometry, Ramos cells, FITC-GAH Fc 2nd Ab; none 3.1
[10] = target: CD74 on human cells (human) (UniProt P04233); assay: indirect FACS, Ramos cells, FITC-GAH Fc 2nd Ab; none 3.1
[11] = target: CD74 on dog lymphocytes and dog lymphoma cells (dog); assay: flow cytometry, canine lymphoma aspirate 150836; none 4.5
[12] = target: CD74 on human cells (human) (UniProt P04233); assay: indirect flow cytometry, RL cells, FITC-GAH Fc 2nd Ab; none 2.4
[13] = target: CD74 on human cells (human) (UniProt P04233); assay: indirect flow cytometry, Namalwa cells, FITC-GAH 2nd Ab; none 2.52
[14] = target: CD74 on human cells (human) (UniProt P04233); assay: indirect flow cytometry, SU-DHL-6 cells, FITC-GAH Fc 2nd Ab; none 4.6
[15] = target: CD74 on human cells (human) (UniProt P04233); assay: indirect FACS, Namalwa cells, FITC-GAH Fc 2nd Ab; none 2.5
[16] = target: CD74 on human cells (human) (UniProt P04233); assay: indirect FACS, SU-DHL-6 cells, FITC-GAH Fc 2nd Ab; none 4.6
[17] = target: CD74 on human cells (human) (UniProt P04233); assay: indirect FACS, Raji cells, FITC-GAH Fc 2nd Ab; none 6.8
[18] = target: CD74 on dog lymphocytes and dog lymphoma cells (dog); assay: flow cytometry, dog lymphoma aspirate; none 3.24

CD74 on human cells (human), sequence (P04233 whole entry): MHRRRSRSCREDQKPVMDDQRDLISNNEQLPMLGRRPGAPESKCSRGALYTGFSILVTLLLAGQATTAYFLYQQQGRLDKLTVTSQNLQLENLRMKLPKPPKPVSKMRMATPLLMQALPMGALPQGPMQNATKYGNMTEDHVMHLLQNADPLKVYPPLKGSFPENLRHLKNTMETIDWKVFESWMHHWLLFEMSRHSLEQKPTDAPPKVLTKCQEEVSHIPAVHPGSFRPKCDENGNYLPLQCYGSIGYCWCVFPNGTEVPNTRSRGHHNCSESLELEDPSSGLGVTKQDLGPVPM

geometric mean fluorescence [1]: 7.8
geometric mean fluorescence [2]: 95.1
mean FL [3]: 3.3
geometric mean fluorescence [4]: 8.7
geometric mean fluorescence [5]: 8.66
geometric mean fluorescence [6]: 48.8
% Positive [7]: 4.71%
geometric mean fluorescence [8]: 48.8
geometric mean fluorescence [9]: 23.3
geometric mean fluorescence [10]: 23.2
% Positive [11]: 4.7%
geometric mean fluorescence [12]: 7.9
geometric mean fluorescence [13]: 10.1
geometric mean fluorescence [14]: 17.3
geometric mean fluorescence [15]: 7.81
geometric mean fluorescence [16]: 17.3
geometric mean fluorescence [17]: 95.1
mean FL [18]: 3.33
Substance: hLL1 (milatuzumab, humanized anti-CD74) (antibody)
